This is an account of results in paper doi:10.1101/249060 (bioRxiv, 2018).

This data set concerns the molecule itself. The experiment in a line: SEC.

Where a chain is given by its changes, count along the chain named. Names and notes keep the numbering of the source.

B1: His6-PafE, wild type, purified alone (natural protein)
chain: MVIGLSTGSDDDDVEVIGGVDPRLIAVQENDSDESSLTDLVEQPAKVMRIGTMIKQLLEEVRAAPLDEASRNRLRDIHATSIRELEDGLAPELREELDRLTLPFNEDAVPSDAELRIAQAQLVGWLEGLFHGIQTALFAQQMAARAQLQQMRQGALPPGVGKSGQHGHGTGQYL
With B1, the binding result is recorded as “binds”.

B2: PafE_(F138E) (natural protein)
chain: B1 chain with F138E
With B2, the binding result is recorded as “binds”.

B3: PafE_(P65G) (natural protein)
chain: B1 chain with P65G
Turning to B3, the binding result is recorded as “binds”.

B4: PafE-PafE linear dimer (PafE_(1-155)-PafE_(1-174)) (other)
chain: MVIGLSTGSDDDDVEVIGGVDPRLIAVQENDSDESSLTDLVEQPAKVMRIGTMIKQLLEEVRAAPLDEASRNRLRDIHATSIRELEDGLAPELREELDRLTLPFNEDAVPSDAELRIAQAQLVGWLEGLFHGIQTALFAQQMAARAQLQQMRQGAGSGNSMVIGLSTGSDDDDVEVIGGVDPRLIAVQENDSDESSLTDLVEQPAKVMRIGTMIKQLLEEVRAAPLDEASRNRLRDIHATSIRELEDGLAPELREELDRLTLPFNEDAVPSDAELRIAQAQLVGWLEGLFHGIQTALFAQQMAARAQLQQMRQGALPPGVGKSGQHGHGTGQYL
B4: the binding result is listed as “binds”.
